In test [1] the target is human LAG-3 (human) (UniProt P18627). In words: flow cytometry, CHO-K1 cells expressing human LAG-3; FIG. 2. A general note: Flow cytometry measures light scatter and fluorescence of single cells or particles in a stream.
Test [2] deals with human CD47 (human) (UniProt Q08722). In words: flow cytometry, CHO-K1 cells expressing human CD47; FIG. 4.
The target is the same in test [3]. Briefly: flow cytometry, CHO-K1 cells expressing human CD47; FIG. 3.
Test [4] deals with human LAG-3 (human) (UniProt P18627). In words: flow cytometry, CHO-K1 cells expressing human LAG-3; FIG. 1.

For one substance, EC50 results are on record in US20220267436A1.

By EC50 is commonly meant the midpoint of the concentration-response curve.

Sequence of human LAG-3 (human) (P18627 23-525): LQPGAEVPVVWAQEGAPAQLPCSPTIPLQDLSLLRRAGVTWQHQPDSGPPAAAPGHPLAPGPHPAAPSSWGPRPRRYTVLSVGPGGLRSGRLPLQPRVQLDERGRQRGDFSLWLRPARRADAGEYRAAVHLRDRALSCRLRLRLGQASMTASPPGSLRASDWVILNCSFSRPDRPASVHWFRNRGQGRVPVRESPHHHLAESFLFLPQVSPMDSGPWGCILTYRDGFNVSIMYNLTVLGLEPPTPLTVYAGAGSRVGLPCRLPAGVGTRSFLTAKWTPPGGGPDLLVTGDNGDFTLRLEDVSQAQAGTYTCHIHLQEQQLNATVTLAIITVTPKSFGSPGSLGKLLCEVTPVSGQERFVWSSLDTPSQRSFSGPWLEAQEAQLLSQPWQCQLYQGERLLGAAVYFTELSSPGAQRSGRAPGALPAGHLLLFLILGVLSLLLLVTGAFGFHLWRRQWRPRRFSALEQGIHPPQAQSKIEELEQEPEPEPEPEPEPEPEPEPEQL
Sequence of human CD47 (human) (Q08722 19-323): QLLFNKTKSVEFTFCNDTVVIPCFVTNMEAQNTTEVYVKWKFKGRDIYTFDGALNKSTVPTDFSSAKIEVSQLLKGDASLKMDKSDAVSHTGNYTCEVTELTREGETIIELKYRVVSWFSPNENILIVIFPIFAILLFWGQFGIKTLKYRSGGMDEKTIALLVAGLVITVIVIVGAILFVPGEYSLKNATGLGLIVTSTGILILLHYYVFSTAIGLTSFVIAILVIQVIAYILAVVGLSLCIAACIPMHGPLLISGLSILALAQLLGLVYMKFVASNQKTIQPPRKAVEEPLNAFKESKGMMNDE

With Human IgG, the EC50 in test [1] came out at 2.46 nM; in test [2] it was 14.4 nM; in test [3], 14.4 nM; in test [4], 2.46 nM.
